From patent publication US20240293316

Experiments:
[1] = target: T1, NPD (micellar nanoparticles of PPAD, DEX-containing PPA with D-MMP peptide) (not fully specified)
T1 chain: GPLGLAGGERDG

[2] = target: T2, NPL (micellar nanoparticles of PPAL, DEX-containing PPA with L-MMP peptide) (not fully specified)
T2 chain: GPLGLAGGERDG

[3] = target: T3, NPR (micellar nanoparticles of PPAR, DEX-containing PPA with random peptide) (not fully specified)
T3 chain: GGSGSGSGWGERDGS

B1: thermolysin (protein)
chain: ITGTSTVGVGRGVLGDQKNINTTYSTYYYLQDNTRGNGIFTYDAKYRTTLPGSLWADADNQFFASYDAPAVDAHYYAGVTYDYYKNVHNRLSYDGNNAAIRSSVHYSQGYNNAFWNGSQMVYGDGDGQTFIPLSGGIDVVAHELTHAVTDYTAGLIYQNESGAINEAISDIFGTLVEFYANKNPDWEIGEDVYTPGISGDSLRSMSDPAKYGDPDHYSKRYTGTQDNGGVHINSGIINKAAYLISQGGTHYGVSVVGIGRDKLGKIFYRALTQYLTPTSNFSQLRAAAVQSATDLYGSTSQEVASVKQAFDAVGVK
[1]
  nanoparticle cleavage experiment (TEM after thermolysin treatment, 1 µM thermolysin : 100 µM polymer, 24 hours at 37° C.): maintained their nanoparticle morphology
[2]
  nanoparticle cleavage experiment (TEM after thermolysin treatment, 1 µM thermolysin : 100 µM polymer, 24 hours at 37° C.): underwent cleavage induced aggregation
[3]
  nanoparticle cleavage experiment (TEM after thermolysin treatment, 1 µM thermolysin : 100 µM polymer, 24 hours at 37° C.): maintained their nanoparticle morphology
